Source: paper PMC4600334, “Myostatin blockade with a fully human monoclonal antibody induces muscle hypertrophy and reverses muscle atrophy in young and aged mice” (Skeletal Muscle, 2015)

B1: Human growth and differentiation factor 11 (ligand, UniProt O95390 299-407, looked up)
chain: NLGLDCDEHSSESRCCRYPLTVDFEAFGWDWIIAPKRYKANYCSGQCEYMFMQKYPHTHLVQQANPRGSAGPCCTPTKMSPINMLYFNDKQQIIYGKIPGMVVDRCGCS
notes: human growth and differentiation factor 11 (GDF11), purchased from R&D Systems; also called GDF11; GDF-11; source: bought: R&D Systems
B2: Human activin A (ligand, UniProt P08476 311-426, looked up)
chain: GLECDGKVNICCKKQFFVSFKDIGWNDWIIAPSGYHANYCEGECPSHIAGTSGSSLSFHSTVINHYRMRGHSPFANLKSCCVPTKLRPMSMLYYDDGQNIIKKDIQNMIVEECGCS
notes: human activin A (inhibin beta A chain), purchased from R&D Systems; source: bought: R&D Systems
B3: Soluble human ActRIIB-hFc (Fc fusion, UniProt Q13705 19-133, looked up)
chain: SGRGEAETRECIYYNANWELERTNQSGLERCEGEQDKRLHCYASWRNSSGTIELVKKGCWLDDFNCYDRQECVATEENPQVYFCCCEGNFCNERFTHLPEAGGPEVTYEPPPTAP
notes: signal peptide in the construct; extracellular domain (1-133) of the human ActRIIB receptor (ACVR2B), in-frame fusion with human IgG1 Fc-domain; also called ActR2B-hFc; source: produced in Chinese hamster ovary (CHO) cells

What was measured:
[1] = target: B3; test: SPR; Biacore T200, CM5 chip, 25 °C; ActRIIB-hFc captured through its Fc (32-39 RU) by immobilised goat anti-human Fcγ antibody; ligands injected at 40 to 0.78 nM; HBS-T (10 mM HEPES, 150 mM NaCl, 3 mM EDTA, 0.05 % P20, 10 mg/ml carboxymethyldextran, 0.5 mg/ml BSA, pH 7.4); global fit to a 1:1 model; conditions: both partners purified
Human activin A [2] = target: B2; test: as above; conditions: both partners purified
[3] = target: B1; test: cell-based or functional assay
Human activin A [4] = target: B2; test: cell-based or functional assay
Human myostatin = target: T1, Human myostatin (human, UniProt O14793 267-375); test: cell-based or functional assay
T1 sequence (looked up): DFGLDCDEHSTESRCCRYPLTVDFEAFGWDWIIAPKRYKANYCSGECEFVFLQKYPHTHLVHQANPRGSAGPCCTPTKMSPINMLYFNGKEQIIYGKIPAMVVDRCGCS

| Binder | Kd [1] [pM] | T1/2 [1] [h] | koff [1] [s⁻¹] | kon [1] [M⁻¹ s⁻¹] | Kd (Human activin A [2]) [pM] | koff (Human activin A [2]) [s⁻¹] | kon (Human activin A [2]) [M⁻¹ s⁻¹] | IC50 of inhibition of Smad2/3 luciferase activity in A204/Smad2/3/Luc cells stimulated with a constant 0.4 nM GDF11 [3] [pM] | IC50 of inhibition of Smad2/3 luciferase activity in A204/Smad2/3/Luc cells stimulated with a constant 0.4 nM activin A (Human activin A [4]) [pM] | IC50 of inhibition of Smad2/3 luciferase activity in A204/Smad2/3/Luc cells stimulated with a constant 1 nM myostatin (Human myostatin) [pM] |
| --- | --- | --- | --- | --- | --- | --- | --- | --- | --- | --- |
| B1 | 14 | 1.87 | 0.000103 | 7.38e+06 | – | – | – | – | – | – |
| B2 | – | 2.43 | – | – | – | – | – | – | – | – |
| B3 | – | – | – | – | 86.6 | 7.94e-05 | 917000 | 460 | 1200 | 570 |
